Experimental data taken from doi:10.1101/431288 (bioRxiv, 2018).

Target: the molecule itself
Assay: cryo-EM structure

B1: human butyrylcholinesterase (HuBChE), native glycosylated enzyme purified from plasma (enzyme, UniProt P06276 29-602, looked up)
chain: EDDIIIATKNGKVRGMNLTVFGGTVTAFLGIPYAQPPLGRLRFKKPQSLTKWSDIWNATKYANSCCQNIDQSFPGFHGSEMWNPNTDLSEDCLYLNVWIPAPKPKNATVLIWIYGGGFQTGTSSLHVYDGKFLARVERVIVVSMNYRVGALGFLALPGNPEAPGNMGLFDQQLALQWVQKNIAAFGGNPKSVTLFGESAGAASVSLHLLSPGSHSLFTRAILQSGSFNAPWAVTSLYEARNRTLNLAKLTGCSRENETEIIKCLRNKDPQEILLNEAFVVPYGTPLSVNFGPTVDGDFLTDMPDILLELGQFKKTQILVGVNKDEGTAFLVYGAPGFSKDNNSIITRKEFQEGLKIFFPGVSEFGKESILFHYTDWVDDQRPENYREALGDVVGDYNFICPALEFTKKFSEWGNNAFFYYFEHRSSKLPWPEWMGVMHGYEIEFVFGLPLERRDNYTKAEEILSRSIVKRWANFAKYGNPNETQNNSTSWPVFKSTEQKYLTLNTESTRIMTKLRAQQCRFWTSFFPKVLEMTGNIDEAEWEWKAGFHRWNNYMMDWKNQFNDYTSKKESCVGL
notes: also called native BChE tetramer
stoichiometry N: 4
